# Target: SPNct, C-terminal glycohydrolase domain of Streptococcus pyogenes beta-NAD+ glycohydrolase (SPN), residues 191-451 (Streptococcus pyogenes)
# Test: crystal structure
binder,measurement,value
"Immunity factor for SPN (IFS), full length, residues 1-161 (natural protein, selenomethionine in place of methionine in the derivative used for MAD phasing) MYKVPKGLEHYQKMFQKEVTVNDLKKYLIGSDKEYRITRRDSYMGDISDPEVILEYGVYPAFIKGYTQLKANIEEALLEMSNSGQALDIYQAVQTLNAENMLLNYYESLPFYLNRQSILANITKALKDAHIREAMAHYKLGEFAHYQDTMLDMVERTIETF",stoichiometry N,1

# Source: publication PMC3056158
